The values below come from the RNAGym collection of RNA variant scans (doi:10.1073/pnas.2313332121).

To fix the notation:
B1: TPR 5TU (parent)
chain: GGAUCUUCUCGAUCUAACAAAAAAGACAAAUCUGCCACAAAGCUUGAGAGCAUCUUCGGAUGCAGAGGCGGCAGCCUUCGGUGGCGCGAUAGCGCCAACGUUCUCAACUAUGACACGCAAAACGCGUGCUCCGUUGAAUGGAGUUUAUCAUG

Variants at the floor of the assay were thinned out.

In the data set the parent is B1. The experiment in a line: polymerase ribozyme fitness, log enrichment relative to wild type (log ratio); higher = more active; in vitro selection for triplet polymerase activity. A digest of the protocol: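 Libraries of mutants in each subunit of a heterodimeric triplet polymerase ribozyme were generated by PCR and transcribed. In triplicate, each went through one in vitro selection round: annealing with biotinylated primer, partner subunit and triplets; frozen incubation at −7 °C; gel excision of extended constructs; streptavidin-bead capture; RT-PCR. Fitness, taken from Illumina sequencing of input and output libraries, is the logarithm of a genotype's enrichment over wild-type enrichment, averaged across replicates with inverse-variance weights. The logarithm is base 2, and genotypes needed ≥10 input reads and ≥1 read per output to be kept.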
Regarding GGAUCUUCUCGAUCUAACAAAAAAGACAAAUCUGCCACAAAGCUUGAGAGCAUCUUCGGAUGCAGAGGCGGCAGCCUGAGGUGGCGCGAUAGCGCCAACGUUCUCAAUUAUGACACGCAAAACGCGUGCUCCGUUGAAUGGAGUUUAUCAUG [U78G C79A C108U], the “polymerase ribozyme fitness (log ratio)” value is ≤ -4.2. The value for GGAUCUUCUCGAUCUAACAAAAAAGACAAAUCUGCCACAAAGCUUGAGAGCAUCUUCGGAUGCAGAGGCGGCAGCCUACGGUGGCGCGAUAGCGCCAACGUUGUCAACUAUGACACGCAAAACGCGUGCUCCGAUGAAUGGAGUUUAUCAUG [U78A C103G U134A] was ≤ -4.2; that for GGAUCUUCUCGAUCUAACAAAAAAGACAAAUCUGCCACAAAGCUUGAGAGCAUCUUCGGAUGCAGAGGCGGCAGCCCUCGGUGGCGCGAUAGCGCCAACGUUCUCAACUAUGAUACGCAAAACGCGUGCUCCGUUGAAUGGAGUUUAUCAUG [U77C C114U] was ≤ -4.2; that for GGAUCUUCUCGAUCUAACAAAAAAGACAAAUCUGCCACAAAGCUUGAGAGCAUCUUCGGAUGCAGAGGCGGCAGCCUGCGGUGGCGAGAUAGCGCCAACGUUCUCAACUAUGACACGCAAAACGCGUGCUCCGUUGAAUGGAGUUUAUCAUG [U78G C87A] was ≤ -4.2. Under GGAUCUUCUCGAUCUAACAAAAAAGACAAAUCUGCCACAAAGCUUGAGAGCAUCUUCGGAUGCAGAGGCGGCAGCCCUCGGUGGCGCGAUAGCGCCAACGUUCUCAACUAAGACACGCAAAACGCGUGCUACGUUGAAUGGAGUUUAUCAUG [U77C U111A C131A] stands ≤ -4.2. Under GGAUCUUCUCGAUCUAACAAAAAAGACAAAUCUGCCACAAAGCUUGAGAGCAUCUUCGGAUGCAGAGGCGGCAGCCUGCGGUGGCGGGAUAUCGCCCACGUUCUCAACUAUGACACGCAAAACGCGUGCUCCGUUGAAUGGAGUUUAUCAUG [U78G C87G G92U A97C] stands ≤ -4.2; under GGAUCUUCUCGAUCUAACAAAAAAGACAAAUCUGCCACAAAGCUUGAGAGCAUCUUCGGAUGCAGAGGCGGCAGCCUACGGUGGCGCGAUAGAUCCAACGUUCUCAACUAUGACACGCAAAACGCGUGCUCCGUUGAAUAGAAUUUAUCAUG [U78A C93A G94U G140A G143A], ≤ -4.2.

Regarding GGAUCUUCUCGAUCUAACAAAAAAGACAAAUCUGCCACAAAGCUUGAGAGCAUCUUCGGAUGCAGAGGCGGCAGCCCUCGGUGGCGCGAUAGCGCCAACGUUCUCAACUAUGACACGCAAAACGCGUGCUCCGUUGAAUGGAUUUUAUCAUG [U77C G143U], the “polymerase ribozyme fitness (log ratio)” value was -4.09.

Consider GGAUCUUCUCGAUCUAACAAAAAAGACAAAUCUGCCACAAAGCUUGAGAGCAUCUUCGGAUGCAGAGGCGGCAGCCAUCGGUGAUGCGAUAGCGCCAACGUUCUCAACUAUGACACGCAAAACGCGUGCUCCGUUGAAUGGAGUUUAUCAUG [U77A G84A C85U], for which the “polymerase ribozyme fitness (log ratio)” value was ≤ -4.2. Under GGAUCUUCUCGAUCUAACAAAAAAGACAAAUCUGCCACAAAGCUUGAGAGCAUCUUCGGAUGCAGAGGCGGCAGCCGUCGGUGGCGUAAUAGCGCCAACGUUCUCAACUAUGACACGCAAAACGCGUGCUCCGUUGAAUCGGGUUUAUCAUG [U77G C87U G88A G140C A142G] stands ≤ -4.2.

As to GGAUCUUCUCGAUCUAACAAAAAAGACAAAUCUGCCACAAAGCUUGAGAGCAUCUUCGGAUGCAGAGGCGGCAGCCUACGGUGGCGUGAUGGCGCCACCGUUCUCAACUAUGACACGCACAACGCGUGCGCCGUUGAAUGAAGUUUAUCAUG [U78A C87U A91G A98C A120C U130G G141A], the “polymerase ribozyme fitness (log ratio)” value was ≤ -4.2. The value for GGAUCUUCUCGAUCUAACAAAAAAGACAAAUCUGCCACAAAGCUUGAGAGCAUCUUCGGAUGCAGAGGCGGCAGCCCUCGAUGGCUCGAUAGCGCCAACAUUCUCAACUAUGACACGCAAAACGCGUGCUCCUUUGAAUGGAGUUUAUCAUG [U77C G81A G86U G100A G133U] was ≤ -4.2. Under GGAUCUUCUCGAUCUAACAAAAAAGACAAAUCUGCCACAAAGCUUGAGAGCAUCUUCGGAUGCAGAGGCGGCAGCCUCCGGGGGCGCGAUAGCGCCAACGUGCUCAACUAUGACACGCAAAACGCGUGCUCCGUUGAAUGGAGUUUAUCAUG [U78C U82G U102G] stands -3.57; under GGAUCUUCUCGAUCUAACAAAAAAGACAAAUCUGCCACAAAGCUUGAGAGCAUCUUCGGAUGCAGAGGCGGCAGCCCUCGGUGGCGCGAUACCGCCAACGUUCUCAACUAUGACACGCAAAACGCGUGCUCCGUUGAACGGAGUUUAUCUUG [U77C G92C U139C A150U], ≤ -4.2; under GGAUCUUCUCGAUCUAACAAAAAAGACAAAUCUGCCACAAAGCUUGAGAGCAUCUUCGGAUGCAGAGGCGGCAGCCUACGGUGGCGCGAUAGCGCCAACGUUCUUAACUAUGACUCGCAAAACGCGUGCUCCGUUGAAUGGAGUUUAUCAUG [U78A C105U A115U], ≤ -4.2. The value for GGAUCUUCUCGAUCUAACAAAAAAGACAAAUCUGCCACAAAGCUUGAGAGCAUCUUCGGAUGCAGAGGCGGCAGCCAUCGGUGAUGCGAUAGCGCCAACGUUCUCAACUAUGACACGCAAAACGCGUGAUCCGUUGAAUGGAGUUUAUCAUG [U77A G84A C85U C129A] was ≤ -4.2; that for GGAUCUUCUCGAUCUAACAAAAAAGACAAAUCUGCCACAAAGCUUGAGAGCAUCUUCGGAUGCAGAGGCGGCAGCCUACGGUUGCGCGAUAGCGCCAACGUUCUCAACUAUGACACGCAAAACGCGUGCUCCGUUGAAUGGAGUUUAUCAUG [U78A G83U] was ≤ -4.2. As to GGAUCUUCUCGAUCUAACAAAAAAGACAAAUCUGCCACAAAGCUUGAGAGCAUCUUCGGAUGCAGAGGCGGCAGCCAUCGGUGGCGCGAUAGCGCCAACGUUCUCAACUAUGACACGCAAAACGCGUGCUCUGUUGAAUGGAGUUUAUCAUG [U77A C132U], the “polymerase ribozyme fitness (log ratio)” value was ≤ -4.2. Consider GGAUCUUCUCGAUCUAACAAAAAAGACAAAUCUGCCACAAAGCUUGAGAGCAUCUUCGGAUGCAGAGGCGGCAGCCUCCGGUCGCGCGAUAGCGCCAACGUUCUCAACUAUGACACGCAAAACGCAUGCUCCGUUGAAUGGAGUUUAUCAUG [U78C G83C G126A], for which the “polymerase ribozyme fitness (log ratio)” value is -0.883.
